Measured values taken from the supplement of paper PMC11316812.
± gives the standard deviation of the averaged measurements.

Key:
hTERT-HMEC = experiment: percentage of EdU-negative (G0-arrested) nuclei per well, 72 h; higher = more G0 arrest; details: reference: sequence is the full UniProt precursor, the tested protein was the secreted form or ectodomain
MCF7 = experiment: as above; details: reference: sequence is the full UniProt precursor, the tested protein was the secreted form or ectodomain
[1] = protein concentration 0.0225 µM
[2] = protein concentration 0.02859 µM
[3] = protein concentration 0.2859 µM
[4] = protein concentration 0.02175 µM
[5] = protein concentration 0.2175 µM
[6] = protein concentration 0.00771429 µM
[7] = protein concentration 0.0771429 µM
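Further: secreted proteins added to cultured cells, EdU pulse at the end, nuclei found by Hoechst imaging, EdU status from nuclear versus surrounding ring intensity ratio, PBS as neutral control.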

Sequence	percentage of EdU-negative (hTERT-HMEC; [1]) [%]	percentage of EdU-negative (hTERT-HMEC; protein concentration 0.225 µM) [%]	percentage of EdU-negative (MCF7; [1]) [%]	percentage of EdU-negative (MCF7; protein concentration 0.225 µM) [%]	also measured
MEYQILKMSLCLFILLFLTPGILCICPLQCICTERHRHVDCSGRNLSTLPSGLQENIIHLNLSYNHFTDLHNQLTQYTNLRTLDISNNRLESLPAHLPRSLWNMSAANNNIKLLDKSDTAYQWNLKYLDVSKNMLEKVVLIKNTLRSLEVLNLSSNKLWTVPTNMPSKLHIVDLSNNSLTQILPGTLINLTNLTHLYLHNNKFTFIPDQSFDQLFQLQEITLYNNRWSCDHKQNITYLLKWMMETKAHVIGTPCSTQISSLKEHNMYPTPSGFTSSLFTVSGMQTVDTINSLSVVTQPKVTKIPKQYRTKETTFGATLSKDTTFTSTDKAFVPYPEDTSTETINSHEAAAATLTIHLQDGMVTNTSLTSSTKSSPTPMTLSITSGMPNNFSEMPQQSTTLNLWREETTTNVKTPLPSVANAWKVNASFLLLLNVVVMLAV	5.851 ± 0.022	10.4 ± 1.5	24.1 ± 0.32	27.6 ± 1.6	–
MLCLGWIFLWLVAGERIKGFNISGCSTKKLLWTYSTRSEEEFVLFCDLPEPQKSHFCHRNRLSPKQVPEHLPFMGSNDLSDVQWYQQPSNGDPLEDIRKSYPHIIQDKCTLHFLTPGVNNSGSYICRPKMIKSPYDVACCVKMILEVKPQTNASCEYSASHKQDLLLGSTGSISCPSLSCQSDAQSPAVTWYKNGKLLSVERSNRIVVDEVYDYHQGTYVCDYTQSDTVSSWTVRAVVQVRTIVGDTKLKPDILDPVEDTLEVELGKPLTISCKARFGFERVFNPVIKWYIKDSDLEWEVSVPEAKSIKSTLKDEIIERNIILEKVTQRDLRRKFVCFVQNSIGNTTQSVQLKEKRGVVLLYILLGTIGTLVAVLAASALLYRHWIEIVLLYRTYQSKDQTLGDKKDFDAFVSYAKWSSFPSEATSSLSEEHLALSLFPDVLENKYGYSLCLLERDVAPGGVYAEDIVSIIKRSRRGIFILSPNYVNGPSIFELQAAVNLALDDQTLKLILIKFCYFQEPESLPHLVKKALRVLPTVTWRGLKSVPPNSRFWAKMRYHMPVKNSQGFTWNQLRITSRIFQWKGLSRTETTGRSSQPKEW	5.27 ± 0.17	4.77 ± 0.22	26.2 ± 0.97	24.78 ± 0.22	–
MKSVLLLTTLLVPAHLVAAWSNNYAVDCPQHCDSSECKSSPRCKRTVLDDCGCCRVCAAGRGETCYRTVSGMDGMKCGPGLRCQPSNGEDPFGEEFGICKDCPYGTFGMDCRETCNCQSGICDRGTGKCLKFPFFQYSVTKSSNRFVSLTEHDMASGDGNIVREEVVKENAAGSPVMRKWLNPR [Q9NQ30]	–	–	–	–	percentage of EdU-negative (hTERT-HMEC; [2]): 4.84 ± 1.4%; percentage of EdU-negative (hTERT-HMEC; [3]): 5.91 ± 0.64%; percentage of EdU-negative (MCF7; [2]): 24.2 ± 1%; percentage of EdU-negative (MCF7; [3]): 25.25 ± 0.057%
MSAVLLLALLGFILPLPGVQALLCQFGTVQHVWKVSDLPRQWTPKNTSCDSGLGCQDTLMLIESGPQVSLVLSKGCTEAKDQEPRVTEHRMGPGLSLISYTFVCRQEDFCNNLVNSLPLWAPQPPADPGSLRCPVCLSMEGCLEGTTEEICPKGTTHCYDGLLRLRGGGIFSNLRVQGCMPQPGCNLLNGTQEIGPVGMTENCNRKDFLTCHRGTTIMTHGNLAQEPTDWTTSNTEMCEVGQVCQETLLLLDVGLTSTLVGTKGCSTVGAQNSQKTTIHSAPPGVLVASYTHFCSSDLCNSASSSSVLLNSLPPQAAPVPGDRQCPTCVQPLGTCSSGSPRMTCPRGATHCYDGYIHLSGGGLSTKMSIQGCVAQPSSFLLNHTRQIGIFSAREKRDVQPPASQHEGGGAEGLESLTWGVGLALAPALWWGVVCPSC [Q8N6Q3]	–	–	–	–	percentage of EdU-negative (hTERT-HMEC; [4]): 4.87 ± 0.96%; percentage of EdU-negative (hTERT-HMEC; [5]): 6.31 ± 0.15%; percentage of EdU-negative (MCF7; [4]): 26.1 ± 2.3%; percentage of EdU-negative (MCF7; [5]): 26.7 ± 1%
MAPRARRRRPLFALLLLCALLARLQVALQIAPPCTSEKHYEHLGRCCNKCEPGKYMSSKCTTTSDSVCLPCGPDEYLDSWNEEDKCLLHKVCDTGKALVAVVAGNSTTPRRCACTAGYHWSQDCECCRRNTECAPGLGAQHPLQLNKDTVCKPCLAGYFSDAFSSTDKCRPWTNCTFLGKRVEHHGTEKSDAVCSSSLPARKPPNEPHVYLPGLIILLLFASVALVAAIIFGVCYRKKGKALTANLWHWINEACGRLSGDKESSGDSCVSTHTANFGQQGACEGVLLLTLEEKTFPEDMCYPDQGGVCQGTCVGGGPYAQGEDARMLSLVSKTEIEEDSFRQMPTEDEYMDRPSQPTDQLLFLTEPGSKSTPPFSEPLEVGENDSLSQCFTGTQSTVGSESCNCTEPLCRTDWTPMSSENYLQKEVDSGHCPHWAASPSPNWADVCTGCRNPPGEDCEPLVGSPKRGPLPQCAYGMGLPPEEEASRTEARDQPEDGADGRLPSSARAGAGSGSSPGGQSPASGNVTGNSNSTFISSGQVMNFKGDIIVVYVSQTSQEGAAAAAEPMGRPVQEETLARRDSFAGNGPRFPDPCGGPEGLREPEKASRPVQEQGGAKA [Q9Y6Q6]	5.19 ± 0.68	5.83 ± 0.025	24 ± 1.9	25.6 ± 1.8	–
MWPLTVPPPLLLLLCSGLAGQTLFQNPEEGWQLYTSAQAPDGKCICTAVIPAQSTCSRDGRSRELRQLMEKVQNVSQSMEVLELRTYRDLQYVRGMETLMRSLDARLRAADGSLSAKSFQELKDRMTELLPLSSVLEQYKADTRTIVRLREEVRNLSGSLAAIQEEMGAYGYEDLQQRVMALEARLHACAQKLGCGKLTGVSNPITVRAMGSRFGSWMTDTMAPSADSRVWYMDGYYKGRRVLEFRTLGDFIKGQNFIQHLLPQPWAGTGHVVYNGSLFYNKYQSNVVVKYHFRSRSVLVQRSLPGAGYNNTFPYSWGGFSDMDFMVDESGLWAVYTTNQNAGNIVVSRLDPHTLEVMRSWDTGYPKRSAGEAFMICGVLYVTNSHLAGAKVYFAYFTNTSSYEYTDVPFHNQYSHISMLDYNPRERALYTWNNGHQVLYNVTLFHVISTSGDP	–	–	–	–	percentage of EdU-negative (hTERT-HMEC; [6]): 4.89 ± 0.63%; percentage of EdU-negative (hTERT-HMEC; [7]): 5.22 ± 0.46%; percentage of EdU-negative (MCF7; [6]): 24.6 ± 2.2%; percentage of EdU-negative (MCF7; [7]): 29 ± 4.7%
